Assay results taken from the supplement of paper PMC5998384.

Key:
HeLa Kyoto [1] = assay: solubility in G1/S (NP-40 vs SDS abundance) (log2 ratio); higher = more soluble; conditions: cell cycle stage: G1/S
HeLa Kyoto [2] = assay: solubility change mitosis vs G1/S (difference of NP-40 vs SDS log2 ratios) (log2 ratio difference); higher = more soluble in mitosis
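Wherever solubility change mitosis vs G1/S (difference of NP-40 vs SDS log2 ratios) is given: synchronized HeLa Kyoto cells (double thymidine block for G1/S, nocodazole release for mitosis), protein amounts in NP-40 versus SDS lysates quantified by mass spectrometry, three biological replicates.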
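Wherever solubility in G1/S (NP-40 vs SDS abundance) is given: HeLa Kyoto cells arrested at G1/S by double thymidine block, proteins quantified by TMT10plex mass spectrometry in mild NP-40 versus SDS extracts, three biological replicates.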

| Sequence | solubility in G1/S (log2) (HeLa Kyoto [1]) | solubility change mitosis (log2) (HeLa Kyoto [2]) |
| --- | --- | --- |
| MGHPPLEFSDCYLDSPDFRERLKCYEQELERTNKFIKDVIKDGNALISAMRNYSSAVQKFSQTLQSFQFDFIGDTLTDDEINIAESFKEFAELLNEVENERMMMVHNASDLLIKPLENFRKEQIGFTKERKKKFEKDGERFYSLLDRHLHLSSKKKESQLQEADLQVDKERHNFFESSLDYVYQIQEVQESKKFNIVEPVLAFLHSLFISNSLTVELTQDFLPYKQQLQLSLQNTRNHFSSTREEMEELKKRMKEAPQTCKLPGQPTIEGYLYTQEKWALGISWVKYYCQYEKETKTLTMTPMEQKPGAKQGPLDLTLKYCVRRKTESIDKRFCFDIETNERPGTITLQALSEANRRLWMEAMDGKEPIYHSPITKQQEMELNEVGFKFVRKCINIIETKGIKTEGLYRTVGSNIQVQKLLNAFFDPKCPGDVDFHNSDWDIKTITSSLKFYLRNLSEPVMTYRLHKELVSAAKSDNLDYRLGAIHSLVYKLPEKNREMLELLIRHLVNVCEHSKENLMTPSNMGVIFGPTLMRAQEDTVAAMMNIKFQNIVVEILIEHFGKIYLGPPEESAAPPVPPPRVTARRHKPITISKRLLRERTVFYTSSLDESEDEIQHQTPNGTITSSIEPPKPPQHPKLPIQRSGETDPGRKSPSRPILDGKLEPCPEVDVGKLVSRLQDGGTKITPKATNGPMPGSGPTKTPSFHIKRPAPRPLAHHKEGDADSFSKVRPPGEKPTIIRPPVRPPDPPCRAATPQKPEPKPDIVAGNAGEITSSVVASRTRFFETASRKTGSSQGRLPGDES [OPHN1] | -0.348 | -0.0995 |
| MGIQGLLQFIKEASEPIHVRKYKGQVVAVDTYCWLHKGAIACAEKLAKGEPTDRYVGFCMKFVNMLLSHGIKPILVFDGCTLPSKKEVERSRRERRQANLLKGKQLLREGKVSEARECFTRSINITHAMAHKVIKAARSQGVDCLVAPYEADAQLAYLNKAGIVQAIITEDSDLLAFGCKKVILKMDQFGNGLEIDQARLGMCRQLGDVFTEEKFRYMCILSGCDYLSSLRGIGLAKACKVLRLANNPDIVKVIKKIGHYLKMNITVPEDYINGFIRANNTFLYQLVFDPIKRKLIPLNAYEDDVDPETLSYAGQYVDDSIALQIALGNKDINTFEQIDDYNPDTAMPAHSRSHSWDDKTCQKSANVSSIWHRNYSPRPESGTVSDAPQLKENPSTVGVERVISTKGLNLPRKSSIVKRPRSAELSEDDLLSQYSLSFTKKTKKNSSEGNKSLSFSEVFVPDLVNGPTNKKSVSTPPRTRNKFATFLQRKNEESGAVVVPGTRSRFFCSSDSTDCVSNKVSIQPLDETAVTDKENNLHESEYGDQEGKRLVDTDVARNSSDDIPNNHIPGDHIPDKATVFTDEESYSFESSKFTRTISPPTLGTLRSCFSWSGGLGDFSRTPSPSPSTALQQFRRKSDSPTSLPENNMSDVSQLKSEESSDDESHPLREEACSSQSQESGEFSLQSSNASKLSQCSSKDSDSEESDCNIKLLDSQSDQTSKLRLSHFSKKDTPLRNKVPGLYKSSSADSLSTTKIKPLGPARASGLSKKPASIQKRKHHNAENKPGLQIKLNELWKNFGFKKDSEKLPPCKKPLSPVRDNIQLTPEAEEDIFNKPECGRVQRAIFQ [EXO1] | -0.442 | 0.136 |
| MGKVLSKIFGNKEMRILMLGLDAAGKTTILYKLKLGQSVTTIPTVGFNVETVTYKNVKFNVWDVGGQDKIRPLWRHYYTGTQGLIFVVDCADRDRIDEARQELHRIINDREMRDAIILIFANKQDLPDAMKPHEIQEKLGLTRIRDRNWYVQPSCATSGDGLYEGLTWLTSNYKS [ARF6] | 0.0719 | 0.0647 |
| MGLELYLDLLSQPCRAVYIFAKKNDIPFELRIVDLIKGQHLSDAFAQVNPLKKVPALKDGDFTLTESVAILLYLTRKYKVPDYWYPQDLQARARVDEYLAWQHTTLRRSCLRALWHKVMFPVFLGEPVSPQTLAATLAELDVTLQLLEDKFLQNKAFLTGPHISLADLVAITELMHPVGAGCQVFEGRPKLATWRQRVEAAVGEDLFQEAHEVILKAKDFPPADPTIKQKLMPWVLAMIR [GSTT1] | 0.038 | -0.295 |
| MGMKVPGKGESGPSALLTPPMSSSSRGPGAGARRRRTRCRRCRACVRTECGDCHFCRDMKKFGGPGRMKQSCLLRQCTAPVLPHTAVCLLCGEAGKEDTVEGEEEKFGLSLMECTICNEIVHPGCLKMGKAEGVINAEIPNCWECPRCTQEGRTSKDSGEGPGRRRADNGEEGASLGSGWKLTEEPPLPPPPPRRKGPLPAGPPPEDVPGPPKRKEREAGNEPPTPRKKVKGGRERHLKKVGGDACLLRGSDPGGPGLLPPRVLNPSQAFSSCHPGLPPENWEKPKPPLASAEGPAVPSPSPQREKLERFKRMCQLLERVPDTSSSSSDSDSDSDSSGTSLSEDEAPGEARNGRRPARGSSGEKENRGGRRAVRPGSGGPLLSWPLGPAPPPRPPQLERHVVRPPPRSPEPDTLPLAAGSDHPLPRAAWLRVFQHLGPRELCICMRVCRTWSRWCYDKRLWPRMDLSRRKSLTPPMLSGVVRRQPRALDLSWTGVSKKQLMWLLNRLQGLQELVLSGCSWLSVSALGSAPLPALRLLDLRWIEDVKDSQLRELLLPPPDTKPGQTESRGRLQGVAELRLAGLELTDASLRLLLRHAPQLSALDLSHCAHVGDPSVHLLTAPTSPLRETLVHLNLAGCHRLTDHCLPLFRRCPRLRRLDLRSCRQLSPEACARLAAAGPPGPFRCPEEKLLLKDS [FBXL19] | -0.317 | -0.126 |
| MGNLESAEGVPGEPPSVPLLLPPGKMPMPEPCELEERFALVLSSMNLPPDKARLLRQYDNEKKWDLICDQERFQVKNPPHTYIQKLQSFLDPSVTRKKFRRRVQESTKVLRELEISLRTNHIGWVREFLNDENKGLDVLVDYLSFAQCSVMFDFEGLESGDDGAFDKLRSWSRSIEDLQPPSALSAPFTNSLARSARQSVLRYSTLPGRRALKNSRLVSQKDDVHVCILCLRAIMNYQYGFNLVMSHPHAVNEIALSLNNKNPRTKALVLELLAAVCLVRGGHEIILAAFDNFKEVCKELHRFEKLMEYFRNEDSNIDFMVACMQFINIVVHSVEDMNFRVHLQYEFTKLGLEEFLQKSRHTESEKLQVQIQAYLDNVFDVGGLLEDAETKNVALEKVEELEEHVSHLTEKLLDLENENMMRVAELEKQLLQREKELESIKETYENTSHQVHTLRRLIKEKEEAFQRRCHLEPNVRGLESVDSEALARVGPAELSEGMPPSDLDLLAPAPPPEEVLPLPPPPAPPLPPPPPPLPDKCPPAPPLPGAAPSVVLTVGLSAIRIKKPIKTKFRLPVFNWTALKPNQISGTVFSELDDEKILEDLDLDKFEELFKTKAQGPALDLICSKNKTAQKAASKVTLLEANRAKNLAITLRKAGRSAEEICRAIHTFDLQTLPVDFVECLMRFLPTEAEVKLLRQYERERQPLEELAAEDRFMLLFSKVERLTQRMAGMAFLGNFQDNLQMLTPQLNAIIAASASVKSSQKLKQMLEIILALGNYMNSSKRGAVYGFKLQSLDLLLDTKSTDRKMTLLHFIALTVKEKYPDLANFWHELHFVEKAAAVSLENVLLDVKELGRGMELIRRECSIHDNSVLRNFLSTNEGKLDKLQRDAKTAEEAYNAVVRYFGESPKTTPPSVFFPVFVRFIRSYKEAEQENEARKKQEEVMREKQLAQEAKKLDAKTPSQRNKWQQQELIAELRRRQAKEHRPVYEGKDGTIEDIITVLKSVPFTARTAKRGSRFFCDAAHHDESNC [FMNL3] | -0.31 | 0.267 |
| MGRGLLRGLWPLHIVLWTRIASTIPPHVQKSVNNDMIVTDNNGAVKFPQLCKFCDVRFSTCDNQKSCMSNCSITSICEKPQEVCVAVWRKNDENITLETVCHDPKLPYHDFILEDAASPKCIMKEKKKPGETFFMCSCSSDECNDNIIFSEEYNTSNPDLLLVIFQVTGISLLPPLGVAISVIIIFYCYRVNRQQKLSSTWETGKTRKLMEFSEHCAIILEDDRSDISSTCANNINHNTELLPIELDTLVGKGRFAEVYKAKLKQNTSEQFETVAVKIFPYEEYASWKTEKDIFSDINLKHENILQFLTAEERKTELGKQYWLITAFHAKGNLQEYLTRHVISWEDLRKLGSSLARGIAHLHSDHTPCGRPKMPIVHRDLKSSNILVKNDLTCCLCDFGLSLRLDPTLSVDDLANSGQVGTARYMAPEVLESRMNLENVESFKQTDVYSMALVLWEMTSRCNAVGEVKDYEPPFGSKVREHPCVESMKDNVLRDRGRPEIPSFWLNHQGIQMVCETLTECWDHDPEARLTAQCVAERFSELEHLDRLSGRSCSEEKIPEDGSLNTTK [TGFBR2] | -0.228 | -0.067 |
| MGSLSGLRLAAGSCFRLCERDVSSSLRLTRSSDLKRINGFCTKPQESPGAPSRTYNRVPLHKPTDWQKKILIWSGRFKKEDEIPETVSLEMLDAAKNKMRVKISYLMIALTVVGCIFMVIEGKKAAQRHETLTSLNLEKKARLKEEAAMKAKTE [FAM162A] | 0.312 | 0.327 |
| MGVALRKLTQWTAAGHGTGILEITPLNEAILKEIIVFVESFIYKHPQEAKFVFVEPLEWNTSLAPSAFESGYVVSETTVKSEEVDKNGQPLLFLSVPQIKIRSFGQLSRLLLIAKTGKLKEAQACVEANRDPIVKILGSDYNTMKENSIALNILGKITRDDDPESEIKMKIAMLLKQLDLHLLNHSLKHISLEISLSPMTVKKDIELLKRFSGKGNQTVLESIEYTSDYEFSNGCRAPPWRQIRGEICYVLVKPHDGETLCITCSAGGVFLNGGKTDDEGDVNYERKGSIYKNLVTFLREKSPKFSENMSKLGISFSEDQQKEKDQLGKAPKKEEAAALRKDISGSDKRSLEKNQINFWRNQMTKRWEPSLNWKTTVNYKGKGSAKEIQEDKHTGKLEKPRPSVSHGRAQLLRKSAEKIEETVSDSSSESEEDEEPPDHRQEASADLPSEYWQIQKLVKYLKGGNQTATVIALCSMRDFSLAQETCQLAIRDVGGLEVLINLLETDEVKCKIGSLKILKEISHNPQIRQNIVDLGGLPIMVNILDSPHKSLKCLAAETIANVAKFKRARRVVRQHGGITKLVALLDCAHDSTKPAQSSLYEARDVEVARCGALALWSCSKSHTNKEAIRKAGGIPLLARLLKTSHENMLIPVVGTLQECASEENYRAAIKAERIIENLVKNLNSENEQLQEHCAMAIYQCAEDKETRDLVRLHGGLKPLASLLNNTDNKERLAAVTGAIWKCSISKENVTKFREYKAIETLVGLLTDQPEEVLVNVVGALGECCQERENRVIVRKCGGIQPLVNLLVGINQALLVNVTKAVGACAVEPESMMIIDRLDGVRLLWSLLKNPHPDVKASAAWALCPCIKNAKDAGEMVRSFVGGLELIVNLLKSDNKEVLASVCAAITNIAKDQENLAVITDHGVVPLLSKLANTNNNKLRHHLAEAISRCCMWGRNRVAFGEHKAVAPLVRYLKSNDTNVHRATAQALYQLSEDADNCITMHENGAVKLLLDMVGSPDQDLQEAAAGCISNIRRLALATEKARYT [ARMC4] | 0.0866 | 0.00126 |
